{"source": "paper PMC10063603", "about": "“Release of frustration drives corneal amyloid disaggregation by brain chaperone” (Communications Biology, 2023)", "binders": {"B1": {"name": "TGFBIp G623R peptide (residues 611-633), recombinant, uniformly 13C,15N-labelled, as amyloid fibril (peptide)", "peptide": "EPVAEPDIMATNRVVHVITNVLQ", "modifications": "also: uniformly 13C,15N-labelled", "notes": "also called double-labeled G623R fibrils; 13C-15N labeled G623R fibril; source: E. coli BL21 (DE3), His-tag-BEAK-tag-TEV fusion, purified (Ni-NTA, TEV cleavage, reverse phase-HPLC); fibrils seeded with 5% (w/v) synthetic G623R seeds in 20 mM TRIS, 37 °C; not shown: His-tag, N-terminal, cleaved; BEAK tag, N-terminal, cleaved"}, "B2": {"name": "TGFBIp A620D peptide (residues 611-633), recombinant, uniformly 13C,15N-labelled, as amyloid fibril (peptide, UniProt Q15582 611-633, looked up)", "peptide": "EPVAEPDIMDTNGVVHVITNVLQ", "modifications": "also: uniformly 13C,15N-labelled", "notes": "also called A620D fibrils; source: E. coli BL21 (DE3), His-tag-BEAK-tag-TEV fusion, purified (Ni-NTA, TEV cleavage, reverse phase-HPLC); not shown: His-tag, N-terminal, cleaved; BEAK tag, N-terminal, cleaved"}, "B3": {"name": "human WT lipocalin-type prostaglandin D synthase (L-PGDS) (natural protein)", "chain": "APEAQVSVQPNFQQDKFLGRWFSAGLASNSSWLREKKAALSMCKSVVAPATDGGLNLTSTFLRKNQCETRTMLLQPAGSLGSYSYRSPHWGSTYSVSVVETDYDQYALLYSQGSKGPGEDFRMATLYSRTQTPRAELKEKFTAFCKAQGFTEDTIVFLPQTDKCMTEQ", "notes": "Lipocalin-type prostaglandin D synthase (L-PGDS), human, wild type; 15N-labelled for the solution NMR; loaded with heme for the cryo-EM micrographs; unlabelled for ssNMR and ThT assays; also called WT L-PGDS; source: E. coli Rosetta 2 DE3 (pNIC-CH vector), purified (Superdex 75 in PBS)"}, "B4": {"name": "TGFBIp G623R peptide (residues 611-633 of the 4th FAS-1 domain), synthetic, as amyloid fibril (peptide)", "peptide": "EPVAEPDIMATNRVVHVITNVLQ", "notes": "Assayed as preformed amyloid fibril (many copies); also called G623R fibril; TGFBIp G623R fibril; source: synthetic peptide, bought: Synpeptide Co Ltd; fibrils formed in PBS at 37 °C, 180 rpm"}}, "key": {"[1]": {"biological_target": "the molecule itself", "assay": "solid-state NMR; 13C,15N-labelled G623R fibrils packed in a 1.9 mm rotor; 18.8 T, MAS 17.857 kHz, 12 °C; NCA, NCO, DARR (20 and 75 ms), NCACX, NCOCX, CANCO; repeating unit calculated with CYANA"}, "[2]": {"biological_target": "B3", "assay": "solid-state NMR; unlabelled L-PGDS added to preformed 13C,15N-labelled G623R fibrils at 1:10; 1D 13C CP and 2D DARR (20 and 75 ms) compared with fibrils alone", "settings": "both partners purified"}, "[3]": {"biological_target": "the molecule itself", "assay": "solid-state NMR; 13C,15N-labelled A620D fibrils in a 1.9 mm rotor; 600 MHz, MAS 13333 Hz, 12 °C; NCA spectrum"}, "[4]": {"biological_target": "B4", "assay": "cell-based or functional assay"}, "[5]": {"biological_target": "B4", "assay": "cryo-EM micrographs; L-PGDS-heme complex (heme as contrast enhancer) mixed with G623R fibrils at 1:10; stoichiometry counted from the images", "settings": "both partners purified"}, "[6]": {"biological_target": "B3", "assay": "NMR titration; 2D 1H-15N HSQC of 15N-labelled L-PGDS without and with G623R fibrils at a molar ratio of 1:4 (L-PGDS: fibrils), 600 MHz", "settings": "both partners purified"}, "[7]": {"biological_target": "the molecule itself", "assay": "cryo-EM structure; G623R fibrils, Titan Krios 300 kV, helical reconstruction in RELION-3.1, map at 4.9 Å; model built with the ssNMR restraints"}}, "note": "No end group written: not given here."}
{"binder": "B1", "values": [{"measurement": "binding result", "setting": "[1]", "value": "binds"}, {"measurement": "binding result", "setting": "[2]", "value": "binds"}]}
{"binder": "B2", "values": [{"measurement": "binding result", "setting": "[3]", "value": "binds"}]}
{"binder": "B3", "values": [{"measurement": "persistence length of G623R fibrils in cryo-EM micrographs without and with L-PGDS", "setting": "[4]", "value": 4, "unit": "fold"}, {"measurement": "reduction of ThT intensity of preformed G623R fibrils after 24 h with L-PGDS at molar ratios of 1:2, 1:5 and 1:10 (52%, 27%, 19%)", "setting": "[4]", "value": 52, "unit": "%"}, {"measurement": "stoichiometry N", "setting": "[5]", "value": 7, "unit": "peptides per L-PGDS"}]}
{"binder": "B4", "values": [{"measurement": "binding result", "setting": "[6]", "value": "binds"}, {"measurement": "binding result", "setting": "[7]", "value": "binds"}]}
